Test results reported in US20140350088A1.

Molecular target: human C5a receptor (human) (UniProt P21730)
Experiment: cell-based or functional assay

Sequence of human C5a receptor (human) (P21730 whole entry): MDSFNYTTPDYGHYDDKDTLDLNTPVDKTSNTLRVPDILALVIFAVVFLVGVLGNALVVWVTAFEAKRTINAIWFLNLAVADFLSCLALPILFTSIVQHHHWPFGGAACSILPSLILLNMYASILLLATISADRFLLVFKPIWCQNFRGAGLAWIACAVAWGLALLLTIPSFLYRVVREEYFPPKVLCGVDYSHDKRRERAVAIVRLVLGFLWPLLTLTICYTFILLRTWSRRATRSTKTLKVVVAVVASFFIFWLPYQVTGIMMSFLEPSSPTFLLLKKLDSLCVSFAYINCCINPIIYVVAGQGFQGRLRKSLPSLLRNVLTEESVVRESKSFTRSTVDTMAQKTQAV

half-maximal effective concentration (EC50) in chemotaxis assay of BA/F3/huC5aR cells [nM] | Substance
0.3 | mouse C5a (from UniProt P06684 679-755) (ligand)
0.1 | recombinant human C5a (from UniProt P01031 678-751) (ligand)
